Results on four proteins are retold here after publication PMC8416091.

Series [1] in a line: confocal imaging of Flag tag, transfected NIH-3T3 cells. The following applies: glycan lost; control: wild-type Tlr2-Flag.
Series [2] is described as follows: confocal immunofluorescence of Tlr2, RAW264.7 cells. The note with it: control: untreated RAW264.7 cells.

B1: Tlr2: N414Q/N442Q (protein)
parent chain: MLRALWLFWILVAITVLFSKRCSAQESLSCDASGVCDGRSRSFTSIPSGLTAAMKSLDLSFNKITYIGHGDLRACANLQVLILKSSRINTIEGDAFYSLGSLEHLDLSDNHLSSLSSSWFGPLSSLKYLNLMGNPYQTLGVTSLFPNLTNLQTLRIGNVETFSEIRRIDFAGLTSLNELEIKALSLRNYQSQSLKSIRDIHHLTLHLSESAFLLEIFADILSSVRYLELRDTNLARFQFSPLPVDEVSSPMKKLAFRGSVLTDESFNELLKLLRYILELSEVEFDDCTLNGLGDFNPSESDVVSELGKVETVTIRRLHIPQFYLFYDLSTVYSLLEKVKRITVENSKVFLVPCSFSQHLKSLEFLDLSENLMVEEYLKNSACKGAWPSLQTLVLSQNHLRSMQKTGEILLTLKNLTSLDISRNTFHPMPDSCQWPEKMRFLNLSSTGIRVVKTCIPQTLEVLDVSNNNLDSFSLFLPRLQELYISRNKLKTLPDASLFPVLLVMKIRENAVSTFSKDQLGSFPKLETLEAGDNHFVCSCELLSFTMETPALAQILVDWPDSYLCDSPPRLHGHRLQDARPSVLECHQAALVSGVCCALLLLILLVGALCHHFHGLWYLRMMWAWLQAKRKPKKAPCRDVCYDAFVSYSEQDSHWVENLMVQQLENSDPPFKLCLHKRDFVPGKWIIDNIIDSIEKSHKTVFVLSENFVRSEWCKYELDFSHFRLFDENNDAAILVLLEPIERKAIPQRFCKLRKIMNTKTYLEWPLDEGQQEVFWVNLRTAIKS
Consider B1, for which the localisation_or_trafficking entry in series [1] is on record as “decreases”.

B2: Tlr2: tunicamycin (protein)
parent chain: B1 parent chain
B2: in series [2] (glycan lost), the localisation_or_trafficking entry is reported as “decreases”.

B3: Tlr2: swainsonine (protein)
parent chain: B1 parent chain
In the case of B3, in series [2] (glycan changed form), the localisation_or_trafficking entry is “changes”.

B4: Tlr2: kifunensine (protein)
parent chain: B1 parent chain
For the protein B4, in series [2] (glycan changed form), the localisation_or_trafficking result is “changes”.
